Assay results taken from PMC2776984 (PLoS Genetics, 2009).
One block for each molecule: values may come before it.

B1: rhGDF5 (recombinant human Growth & Differentiation Factor 5) (ligand)
chain: RQGKRPSKNLKARCSRKALHVNFKDMGWDDWIIAPLEYEAFHCEGLCEFPLRSHLEPTNHAVIQTLMNSMDPESTPPTCCVPTRLSPISILFIDSANNVVYKQYEDMVVESCGCR
notes: GDF5 (CDMP1), human, recombinant; also called CDMP1; wild-type GDF5; source: bought/supplied: Biopharm GmbH

What was measured:
Experiment in all cases: SPR; BIA2000 system (Biacore); receptor ectodomains immobilised, GDF5 proteins as analyte; apparent KD; n = 6; as described in ref. 16
[1] = target: BMPR1Aecd (soluble ectodomain of rhBMPR1A) (human) (UniProt P36894)
Chain of BMPR1Aecd (soluble ectodomain of rhBMPR1A) (human) (P36894 24-152): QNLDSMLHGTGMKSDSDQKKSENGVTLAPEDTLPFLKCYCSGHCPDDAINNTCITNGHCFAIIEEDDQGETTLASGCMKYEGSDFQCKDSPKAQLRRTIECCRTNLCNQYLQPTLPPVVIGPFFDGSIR

[2] = target: BMPR1Becd (soluble ectodomain of rhBMPR1B) (human) (UniProt O00238)
[3] = target: T1, BMPR1Aecd (soluble ectodomain of rhBMPR1A) (human, UniProt P36894 24-152); conditions: both partners purified
T1 construct: BMPR1A, BMP type I receptor, human (rh), extracellular domain; also called BMPR1A ectodomain
T1 sequence (P36894 24-152): as above

[4] = target: B1; conditions: both partners purified

- Kd [1]: 19.5 nM
- Kd [2]: 1.2 nM
Molecule: rhN445T GDF5 (from UniProt P43026 28-501) (ligand)

Molecule: B1
- Kd [3]: 17 ± 4.6 nM

- Kd [4]: 1.1 ± 0.2 nM
B2: BMPR1Becd (soluble ectodomain of rhBMPR1B) (receptor, human, UniProt O00238 14-126, looked up)
chain: KKEDGESTAPTPRPKVLRCKCHHHCPEDSVNNICSTDGYCFTMIEEDDSGLPVVTSGCLGLEGSDFQCRDTPIPHQRRSIECCTERNECNKDLHPTLPPLKNRDFVDGPIHHR
notes: BMPR1B, BMP type I receptor, human (rh), extracellular domain; also called BMPR1B ectodomain
